Positions count from the first letter of the chain named. In names and notes the source's numbering stands.
B1: 11BLM (antibody, human IgG1, kappa, L234A L235A, V domains shown)
VH: EVQLVQSGAEVKKPGASVKVSCKASGYTFTSYDMHWVRQAPGQGLEWMGRIDPQSGGIRYAQKFQGRATLTVDTSTSTAYMELSRLRSDDTAVYYCARWDYGGYFDVWGQGTLVTVSS
VL: DIQMTQSPSSLSASVGDRVTITCRASQDIYNYLNWYQQKPGKAVKLLIYYTSVLETGVPSRFSGSGSGTDYTLTISSLQPEDFATYFCQQGDTLPWTFGQGTKLEIKR
notes: IgG1 L234A L235A D265S/kappa; also called 74BLH; 47BMD
B2: 12BLM (antibody, human IgG1, kappa, L234A L235A, V domains shown)
VH: B1 VH with I58V, R59K
VL: B1 VL with T93E
notes: IgG1 L234A L235A D265S/kappa; also called 75BLH; 48BMD
B3: 15BLM (antibody, human IgG1, kappa, L234A L235A, V domains shown)
VH: B1 VH with R59K
VL: B1 VL with V53R
notes: IgG1 L234A L235A D265S/kappa; also called 78BLH; 51BMD
B4: 18BLM (antibody, human IgG1, kappa, L234A L235A, V domains shown)
VH: B1 VH with R59K, W99Y, Y101H
VL: B1 VL with V53R
notes: IgG1 L234A L235A D265S/kappa; also called 81BLH; 54BMD
B5: 19BLM (antibody, human IgG1, kappa, L234A L235A, V domains shown)
VH: B1 VH with R59K, W99Y, Y101H
VL: B1 VL with V53Y
notes: IgG1 L234A L235A D265S/kappa; also called 82BLH; 55BMD
B6: 66BLH (Fab, V domains shown)
VH: B1 VH with R59K, W99Y, Y101H
VL: DIQMTQSPSSLSASVGDRVTITCRASQDIYNYLNWYQQKPGKAVKLLIYYTSRLETGVPSRFSGSGSGTDYTLTISSLQPEDFATYFCQQGDTLPWTFGQGTKLEIK
notes: also called 18BLM Fab

Target: human LAP-TGFβ1 expressed on P3U1 cells (human, UniProt P01137 30-390)
Test: cell-based or functional assay

human LAP-TGFβ1 expressed on P3U1 cells, sequence (P01137 30-390): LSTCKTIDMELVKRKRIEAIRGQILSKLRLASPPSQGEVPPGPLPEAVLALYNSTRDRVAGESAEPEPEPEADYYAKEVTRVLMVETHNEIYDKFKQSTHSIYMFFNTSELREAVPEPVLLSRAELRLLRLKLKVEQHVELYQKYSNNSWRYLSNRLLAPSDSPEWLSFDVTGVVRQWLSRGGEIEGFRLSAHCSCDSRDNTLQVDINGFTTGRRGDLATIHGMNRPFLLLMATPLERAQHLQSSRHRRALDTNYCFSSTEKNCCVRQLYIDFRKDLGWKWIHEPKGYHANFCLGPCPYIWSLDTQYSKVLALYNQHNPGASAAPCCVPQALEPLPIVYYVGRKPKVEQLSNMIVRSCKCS

Binder | Average EC50 [µg/mL] | ELISA assay 2 EC50 [µg/mL] | ELISA assay #1 EC50 [µg/mL]
B1 | 0.083 | 0.112 | 0.0539
B2 | 0.063 | 0.096 | 0.0295
B3 | 0.231 | 0.243 | 0.219
B4 | 0.052 | 0.006 | 0.0982
B5 | 0.179 | 0.205 | 0.152

Target: T1, human LAP-TGFB1 Fc fusion (human)
T1 construct: also called human LAP-TGFβ1-Fc; human LAP-TGFβ-Fc isoform 1
Test: SPR pH 7.4, antigen captured on Fab 54BLH
From the text: (§1) A Series S C1 sensor chip (Cytiva, catalog BR100535) was immobilized with low densities of high affinity Fab 54BLH on a Biacore T200 instrument with 1×HBS-EP+(Teknova, catalog H8022). This surface served as a monovalent capture surface for a low-density layer of heterodimer human LAP-TGFβ1 complex leaving the second binding site exposed for monovalent kinetic binding analysis with both mAbs and Fabs. Immobilized flow cell 1 served as the reference and flow cells 2, 3 and 4 were used to evaluate the binding interaction between human LAP-TGFβ1 and yeast display mutant mAbs and Fabs.
(§2) Approximately 15-25 RU of human LAP-TGFβ1-Fc was captured to the Fab capture surface followed by injection of 1:3 serially diluted Fabs and mAbs from 6 nM to 0.07 nM (Fabs: 54BLH, 55BLH, 60BLH, 63BLH, 64BLH-mAbs: 69BLH, 70BLH) and 1:3 serially diluted Fab and mAbs from 60 nM to 0.74 nM (Fabs: 59BLH, 66BLH, 67BLH—mAbs: 74BLH, 75BLH, 78BLH, 79BLH, 81BLH, 82BLH) including 0 nM. The binding data was double referenced by subtraction of signal from a reference flow cell and the 0 nM injections for evaluation of Fabs and mAbs respectively. Binding rate constants were calculated/determined by fitting the data with a 1:1 binding model (Cytiva Biacore T200 Evaluation software 3.0).

T1 sequence (chain, as listed by the source limits assumed): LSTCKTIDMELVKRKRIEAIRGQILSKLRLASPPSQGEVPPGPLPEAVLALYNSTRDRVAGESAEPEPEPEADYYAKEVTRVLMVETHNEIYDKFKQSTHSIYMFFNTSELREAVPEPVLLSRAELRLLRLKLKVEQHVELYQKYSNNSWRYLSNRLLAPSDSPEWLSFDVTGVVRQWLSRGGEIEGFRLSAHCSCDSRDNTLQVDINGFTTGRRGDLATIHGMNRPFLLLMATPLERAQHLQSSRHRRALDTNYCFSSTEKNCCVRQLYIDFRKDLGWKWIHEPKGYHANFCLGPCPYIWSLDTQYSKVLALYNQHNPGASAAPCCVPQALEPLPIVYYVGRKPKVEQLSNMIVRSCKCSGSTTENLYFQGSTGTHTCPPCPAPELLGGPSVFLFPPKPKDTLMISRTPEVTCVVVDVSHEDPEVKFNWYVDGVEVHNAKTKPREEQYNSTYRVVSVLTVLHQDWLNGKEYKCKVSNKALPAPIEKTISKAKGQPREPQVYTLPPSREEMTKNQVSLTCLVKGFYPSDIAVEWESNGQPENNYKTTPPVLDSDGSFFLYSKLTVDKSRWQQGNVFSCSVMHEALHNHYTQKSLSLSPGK

Binder | Fab/mAb KD Ratio | Kd [nM] | koff [s⁻¹] | kon [M⁻¹ s⁻¹]
B1 | 1.7 | 0.026 | 0.000374 | 1.47e+07
B2 | 3.2 | 0.0111 | 0.000212 | 1.91e+07
B3 | 4 | 0.0876 | 0.00196 | 2.22e+07
B4 | 3.3 | 0.959 | 0.00518 | 5.4e+06
B5 | 13.3 | 0.178 | 0.014 | 7.82e+07
B6 |  | 3.13 | 0.0181 | 5.76e+06

Target: T1, human LAP-TGFB1 Fc fusion
Test: SPR pH 6.0, antigen captured on Fab 54BLH
From the text: as §1, §2

Binder | Fab/mAb KD Ratio | Kd [nM] | koff [s⁻¹] | kon [M⁻¹ s⁻¹]
B1 | 1.3 | 0.133 | 0.000892 | 6.75e+06
B2 | 2.2 | 0.136 | 0.000936 | 6.86e+06
B3 | 3.2 | 0.331 | 0.00399 | 1.21e+07
B4 | 1.8 | 9.11 | 0.0489 | 5.65e+06
B5 | 5.5 | 3.43 | 0.0365 | 1.07e+07
B6 |  | 16.8 | 0.0329 | 1.96e+06

Target: T2, human LAP-TGFB3 Fc fusion (human)
T2 construct: also called human LAP-TGFβ3; LAP-TGFβ isoform 3
Test: SPR pH 7.4

T2 sequence (chain, as listed by the source limits assumed): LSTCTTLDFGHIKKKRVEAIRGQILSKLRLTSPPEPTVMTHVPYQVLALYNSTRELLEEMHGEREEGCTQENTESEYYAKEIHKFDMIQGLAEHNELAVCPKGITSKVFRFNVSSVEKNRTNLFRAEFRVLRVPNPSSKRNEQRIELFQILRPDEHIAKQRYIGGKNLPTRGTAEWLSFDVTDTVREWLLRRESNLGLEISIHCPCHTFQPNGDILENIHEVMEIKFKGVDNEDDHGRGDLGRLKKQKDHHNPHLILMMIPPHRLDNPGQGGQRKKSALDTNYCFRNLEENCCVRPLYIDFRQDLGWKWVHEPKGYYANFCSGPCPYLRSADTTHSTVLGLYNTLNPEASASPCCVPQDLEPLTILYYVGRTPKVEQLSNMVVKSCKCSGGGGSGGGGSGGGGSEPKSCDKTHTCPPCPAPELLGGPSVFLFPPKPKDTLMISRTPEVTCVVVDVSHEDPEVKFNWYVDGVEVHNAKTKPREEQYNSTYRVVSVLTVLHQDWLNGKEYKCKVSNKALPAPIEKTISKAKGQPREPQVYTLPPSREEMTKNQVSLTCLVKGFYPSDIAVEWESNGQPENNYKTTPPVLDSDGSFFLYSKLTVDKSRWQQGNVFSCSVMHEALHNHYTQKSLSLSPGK

Binder | binding result
B6 | no binding (tested: 1000 nM Fab)

Target: T3, human LAP-TGFB2 Fc fusion (human)
T3 construct: also called human LAP-TGFβ2; LAP-TGFβ isoform 2
Test: SPR pH 7.4

T3 sequence (chain, as listed by the source limits assumed): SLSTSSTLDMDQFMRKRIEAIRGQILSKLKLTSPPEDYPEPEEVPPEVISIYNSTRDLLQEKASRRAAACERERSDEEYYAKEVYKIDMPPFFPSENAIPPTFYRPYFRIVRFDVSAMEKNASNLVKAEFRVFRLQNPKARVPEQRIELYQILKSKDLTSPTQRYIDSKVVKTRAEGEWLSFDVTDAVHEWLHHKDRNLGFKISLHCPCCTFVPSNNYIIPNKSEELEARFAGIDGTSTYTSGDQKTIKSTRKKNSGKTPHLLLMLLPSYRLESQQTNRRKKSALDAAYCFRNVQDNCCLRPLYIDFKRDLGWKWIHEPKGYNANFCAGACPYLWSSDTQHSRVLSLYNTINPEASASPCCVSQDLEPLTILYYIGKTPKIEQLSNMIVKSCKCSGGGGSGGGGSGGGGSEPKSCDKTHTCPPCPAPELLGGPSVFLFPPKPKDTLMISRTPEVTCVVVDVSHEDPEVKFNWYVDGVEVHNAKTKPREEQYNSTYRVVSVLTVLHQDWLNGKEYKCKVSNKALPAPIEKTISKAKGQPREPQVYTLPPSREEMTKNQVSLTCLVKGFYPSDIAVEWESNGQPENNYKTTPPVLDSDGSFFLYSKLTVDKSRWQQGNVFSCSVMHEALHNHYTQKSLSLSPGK

Binder | binding result
B6 | no binding (tested: 1000 nM Fab)

Target: T1, human LAP-TGFB1 Fc fusion
Test: SPR pH 7.4, antigen-Fc captured, Fab analyte

Binder | Fold improvement in KD [fold] | Kd [nM] | koff [s⁻¹] | kon [M⁻¹ s⁻¹]
B6 | 16 | 3.73 | 0.00764 | 2.05e+06

Target: T1, human LAP-TGFB1 Fc fusion
Test: SPR pH 6.0, antigen-Fc captured, Fab analyte
Description: A Series S CM4 sensor chip (Cytiva, catalog BR100534) was immobilized with an anti-human Fc capture antibody following the kit protocol (Cytiva, catalog BR100839) on a Biacore T200 instrument with 1× HBS-EP+ (Teknova, catalog H8022). […] The binding data were double referenced by subtraction of signal from a reference (capture surface only) flow cell and the 0 nM Fab injection. Binding rate constants were determined by fitting the data with a 1:1 binding model (Cytiva Biacore T200 Evaluation software 3.0).

Binder | koff [s⁻¹] | kon [M⁻¹ s⁻¹]
B6 | 0.0221 | 2.09e+06

Target: T4, human LAP-TGFβ1 (construct not stated) (human, UniProt P01137 30-390)
T4 construct: also called human LAP-TGFβ isoform 1; titrant
Test: KinExA, mAb as constant binding partner
Description: An orthogonal kinetic exclusion assay (KinExA) method was used in this study to measure the affinities of affinity-matured anti-LAP-TGFβ1 antibodies (referred to as the constant binding partner, CBP) and human LAP-TGFβ1 (referred to as the titrant). To determine the free CBP concentration in solution, biotinylated human LAP-TGFβ1 coated PMMA (Sapidyne, catalog 440176) beads were prepared by first coating with biotin-BSA (ThermoScientific, catalog 29130) followed by streptavidin (Invitrogen, catalog S888), and a final coat with biotinylated human LAP-TGFβ1-Fc.
For association rate analysis, an experimentally optimized constant concentration of CBP and titrant, were mixed 1:1 and free CBP was measured at timed intervals ranging from 15 to 10000 seconds. […] The data were analyzed with KinExA Pro software (version 4.4.26) where the free CBP binding signals were converted into percent free response, plotted against time (seconds) and processed with the n-curve software “Kinetics, Direct” analysis method.
For equilibrium affinity analysis, two experimentally optimized CBP concentrations were combined with 1:2 serially diluted titrant, human LAP-TGFβ1, and incubated at room temperature to achieve equilibrium. […] The data was analyzed with KinExA Pro software (version 4.4.26) where the free CBP binding signals were converted into percent free response and plotted against the titrant concentration series. The equilibrium KD was determined by processing with n-curve software “Equilibrium” analysis method.

T4 sequence (P01137 30-390 limits assumed): as the sequence (P01137 30-390) above

Binder | Kd [nM] | koff [s⁻¹] | kon [M⁻¹ s⁻¹]
B1 | 0.00133 | 8.14e-06 | 1.63e+07
B2 | 0.000367 | 7.71e-06 | 2.04e+07
B3 | 0.00235 | 2.56e-05 | 1.09e+07
B4 | 0.0621 | 6.09e-06 | 98300
B5 | 0.068 | 1.98e-06 | 29200

From patent publication US20230272056A1 (Merck Sharp & Dohme, published 2023)
